Test results as given in the DeepSol protein solubility set.

Assay: soluble on expression in E. coli; label from the status in PepcDB or PDB records

| Sequence | soluble on expression in E. coli |
| --- | --- |
| MASMGVPALFRLLSRKFAKVITPVIEAPTEKLPDGTEIEPDLSLPNPNGVECDNLYLDMNGIVHPCSHPEDRPAPETEDEMMVAVFEYTDRILAMVRPRQLLFIAIDGVAPRAKMNQQRSRRFRSSREAALKEEELQAFIEEAKQQGIPIDENATKKKSWDSNCITPGTPFMDTLAKSLRYYIINKLNSDPCWRNVRFILSDASVPGEGEHKIMEFIRSQRVKPEYDPNTHHVVYGLDADLIMLGLATHEPHFRVLREDVFFQQGSTKKTKEERLGIKRLDDVSETNKVPVKKPFIWLNVSILREYLEVELYVPNLPFPFDLERAIDDWVFFIFFVGNDFLPHLPSLDIRDGAVERLTEIWRASLPHMGGYLTLDGSVNLARAEVILSAVGNQEDDIFKRLKQQEDRRNENYRRRQQRESNQESESYVDNVVIQRSVETQSTEVVTSSKSTSVDTKPPKKTQKIDAPAPVDLVNLSEKTSNRSLGATNRELINNRAANRLGLSREAAAVSSVNKLAASALKAQLVSNETLQNVPLEDSIASSSAYEDTDSIESSTPVVHPIDTKVSNVGQKRKAPDSTEENENTDTVRLYEPGYRERYYEQKFHISPDEPEKIREAVKHYVHGLCWVLLYYYQGCPSWTWYYPYHYAPFAADFKDLASIDVKFELNQPFKPYEQLLGVLPAASKNNLPEKLQTLMTDENSEIIDFYPENFTIDLNGKKFEWQGVALLPFIDENRLLNAVSKIYPQLTEEESKRNEDGSTLLFISEHHPMFSELVKQLYSKKRQGKPLKLSGKMAHGLFGKVNTNDSVIPNVSVQCPIDVTSADALQKYGSIDDNQSISLVFEVPKSHFVHKSMLLRGVKMPNRVLTPEDINQVRAERSFSSRRNNGNSAAALEHHHHHH | soluble |
| MLEIDNQTPLESDFLLLEKIANVLAPTQIIELVLVSDETIREINKDLRGCDYATDVLSFPLEAIPHTPLGSVVINAPLAQTNALKLGHSLENEIALLFIHGVLHLLGYDHEKDKGEQRQKESELIKAFNLPLSLIERTQDLEHHHHHH | not soluble |
| MAHHHHHHMLCVSVAKDGFAIVLTGLDTKRRAPPHQQRLSRNVCFHQTKAKEFVARFHQPCFLAWSHRTIGHPDALQDGARRRQEYKPSHSHPFFRCNEGAHQHMCG | soluble |
| MTQGKGTREGGVLADVSALGPGGHAVVVGGGLAGVTTALALADAGVRVTLLEGRPRLGGLAFSFQRGDLTVDNGQHVYLRCCTAYRWFLDRIGGAALAPVQERLDVPVVDLARTEGNRLGRLRRDALPVPLHLGRSLATYPHLSLAERASVGRAALALKGLDLADPSLDTQDFGSWLTAHGQSARAVEALWDLVGVATLNAVAGDASLGLAAMVFKTGLLSDPGAADIGWARVPLGELHDRLARKALDSAGVRTEVRTRVTSVSVNENGGWSVQVPGETLEADAVVLAVPQREAHDLLPDGALDAPENLLRIGTAPILNIHVIYDRKVLGTPFLTALGTPVQWVFDRTEASGLKEGQYLALSQSTAQNDIDEPVAVLRERYLPELERLLPRTRGAEVKDFFVTRERTATFAPAPGVGRLRPGARTKAPGLYLAGAWTATGWPATMESAVRSGVGAAAAALGALGRSRGLLPDFFEEAALEHHHHHH | not soluble |
| MWAFPERFEGRHVRLEPLALAHLPAFLRHYDPEVYRFLSRAPVAPTEEALRAHLEGLLGEPGRVNWAILFGKEVAGRISVIAPEPEHAKLELGTMLFKPFWGSPANKEAKYLLLRHAFEVLRAERVQFKVDLRNERSQRALEALGAVREGVLRKNRRLPDGAFRDDVVYSVLKEEWPGVKARLEARLYGASGNP | soluble |
| MGHHHHHHSHEVIKGSWQPVGDLLIDSLQDHLEKVKALRGEIAPLKENVSHVNDLARQLTTLGIQLSPYNLSTLEDLNTRWKLLQVAVEDRVRQLHEAHRDFGPASQHFLSTSVQGPWERAISPNKVPYYINHETQTTCWDHPKMTELYQSLADLNNVRFSAYRTAMKLRRLQKALCLDLLSLSAACDALDQHNLKQNDQPMDILQIINCLTTIYDRLEQEHNNLVNVPLCVDMCLNWLLNVYDTGRTGRIRVLSFKTGIISLCKAHLEDKYRYLFKQVASSTGFCDQRRLGLLLHDSIQIPRQLGEVASFGGSNIEPSVRSCFQFANNKPEIEAALFLDWMRLEPQSMVWLPVLHRVAAAETAKHQAKCNICKECPIIGFRYRSLKHFNYDICQSCFFSGRVAKGHKMHYPMVEYCTPTTSGEDVRDFAKVLKNKFRTKRYFAKHPRMGYLPVQTVLEGDNMETPVTLINFWPVDSAPAS | not soluble |
| SDHFNAPVGMLEAITSVEGVDRVVPTIEMTGVAKTDSAFAGILLMGDNSLRTRNPLFGQTVSGNYPSFSSADTVPNPILLPQVTADKLHLKIGDKLRIYFAGTERMRLRAFTVAGVYSGGKMDMPVGLVSADVLRRVGGLGADDVSRLLIYASDPDETDLIVTRVFDRLSETLYVGEQRLTINTATELNPMIMDWLSALDTN | not soluble |
| SGMYKIILNQTARYFAKFAPDNEQNILWGLPLQYGWQYRTGRLADPTRRTNCGYESGDHMCISVDSWWADLNYFLSSLPFLAAVDSGVMGISSDQVRLLPPPKNERKFCYDVSSCRSSFPETMNKWNTFYQYLQSPFSKFDDLLKYLWAAHTSTLADNIKSFEDRYDYYSKAEAHFERSWVLAVDHLAAVLFPTTLIRSYKFQKGMPPRILLNTDVAPFISDFTAFQNVVLVLLNMLDNVDKSIGYLCTEKSNVYRDHSESSSRSYGNNS | not soluble |
| MTAPLIRVSRKRTADPHDALILHTKRAKHGGNPLVFTLYKAAGNDLELNGARVLDLPTQEHGMELADEENPLGFVKDEAVGLVGEVEKNVKKPAEQVSLNGRLLQPVTDGGGAAAGSSDDVVYDYYAIHEKRGNPEVVGNLEQDIEGADFRFAKRDELDLGDEDDSDGPPADDEDDSNDEDNWRNDYPDEESYDEDSDNGDPYGISEPDHWHAGEEAYSDESFHRRLQNMDLNDERYEAFYEGDETDEDAD | soluble |
| FVVAFLCNWCSYACADLTGMSRIHYPTNIRVIRTMCSARINPEFVLEALKGGADGVLVAGCRMDECHYIHGNFDAKKRMDVLKEIIKEIGLDPKRLRTLWISAAEGERFSNTITEFVKELEEIGPIGSELKREYTATGLEEVAK | not soluble |
| NGHYMDQFTYAERATDWRGNNNIANSIFSQMQLEDHPIPSWVVMSPGTGGTSATIGRFIRYQKYDTKLCVVDPENSVFYDAFQSGNNELKGNTGSKIEGIGRPRVEPSFIAGVVDEMRKIPDAASIATAHWVSQLIGRKVGASTGTNLYGVLQLACEMKQRGETGSIVTLLCDSGERYLDTYYDLAWVKENIGDIQPYLTQLEVIQAKGCVEPACCGPITA | not soluble |
| MKWLLLITLSLYSFIVQSAPCGLTNVGEQRGTYILKPLSMKGNLTAEKIENTGNIIECADLQETTNAIKVHFLTQNALRFKVGSRHYIINFPFESDGKKNSASREVIL | soluble |
| MYSIIRPFLLHAVTSVHAGSGSEIGLVDLPIQREKHTGFPKIESSSLKGALRYHMTQALPDETNKLELIFGADKGQESVTQASAIALSDARVLLFPVKSLRGVFAWITCPHVLERWNQEMSVHQEMKGKGEGFQSLPVPGPNTVSADRLIVADGRIILEEYTFPVTVSPEAKQLAEQLSAIIGESSRLRVTDRLVILSDDDFTDFVKLSTEVNARIRISPETGTVDSGALWYEENVPPETFFYSFLYIGHVRGKGVDGLATAEEIERYLVDERKFPSVFQLGGNSTLGRGMMRTIWL | not soluble |
| MRRAGYLHLYGLNLVFDRVGKGPPVLLVAEEASRWPEALPEGYAFYLLDLPGYGRTEGPRMAPEELAHFVAGFAVMMNLGAPWVLLRGLGLALGPHLEALGLRALPAEGVEVAEVLSSKLSYGNIDLGGNL | soluble |
| QSILQDLFLLLIKFPKEEKTVEVFDTSPKIQLSNYEQYRQDALLAKAEGEQNKINTVLSYTEKTLAPYVVESELSNLCTQISHFLSSDWKEEECREIKISSQLKSIDLMHFGWNIAQPFGKSRKEISTFLKYTFAHALEDVEVSTLQRKLTNTEGKFLIPLQEKLSTESYSSS | not soluble |
| MGSDKIHHHHHHMINIFKPRTLTFYLVKSMDVLELLSELVSFNTVNDPNKGIKPSKECPRFIKDQLDSWDIESEIIERSGYYAVYGEIGDGTPRLLFMAHFDVVPVNLEEWETDPFELTIKENKAYGRGSADDKGNVAAVMLALKELSKEEKLNGRVIFAFTGDEEIGGAMAMHIAEKLSKEGKVPKYMINADGIGMKPIIRRRKGFGVEIKVYPRKVKVKGRVREIEFEPKTPVVETRHAAYFLPGVDTHPMVALSHFLRNSNAVAISLDGAFIKGNVIPGKVKLKYVEPGEGEEVEGDLSLTALLKAIVPIVRAPIKAEKYSDYGVSITPNVYSFDGSHVLKVDVRAMSYSKDDIEKTLREVLNFNLPEAELIIKENEKAGYLFTSPDDELVRVTLRILKELGEDVEPIEGPGASDSRYFTPLGVKAIDIGPRGGNIHGPNEYVEVDSLRKMPEIYRRIALSLLL | not soluble |
| VFLDFEKGIEEFEAKIEQLRFAQDNSALDISAEIARLQTKSLGLTKSVYAKLTPWQISQVARHPQRPYTLDYVQHLFTDFEELHGDRNFADDQAIVGGLARFNGQTVMIIGHQKGRDTKEKIHRNFGMPKPEGYRKALRLMRLAEKFSI | not soluble |
| MSLKYVIGIDLGTSAVKTILVNQNGKVCAETSKRYPLIQEKAGYSEQNPEDWVQQTIEALAELVSISNVQAKDIDGISYSGQMHGLVLLDQDRQVLRNAILWNDTRTTPQCIRMTEKFGDHLLDITKNRVLEGFTLPKMLWVKEHEPELFKKTAVFLLPKDYVRFRMTGVIHTEYSDAAGTLLLHITRKEWSNDICNQIGISADICPPLVESHDCVGSLLPHVAAKTGLLEKTKVYAGGADNACGAIGAGILSSGKTLCSIGTSGVILSYEEEKERDFKGKVHFFNHGKKDSFYTMGVTLAAGYSLDWFKRTFAPNESFEQLLQGVEAIPIGANGLLYTPYLVGERTPHADSSIRGSLIGMDGAHNRKHFLRAIMEGITFSLHESIELFREAGKSVHTVVSIGGGAKNDTWLQMQADIFNTRVIKLENEQGPAMGAAMLAAFGSGWFESLEECAEQFIREAAAFYPKAQNVQKYKTLFDLYKNIYTHTKDLNTALKSFRKNEGHHHHHH | soluble |
| MYRRLASGLYQTSQRRIAQVQPKSVFVPETIVTTLPNGFRVATENTGGSTATIGVFIDAGSRYENEKNNGTAHFLEHMAFKGTPRRTRMGLELEVENIGAHLNAYTSRESTTYYAKCFTEKLDQSVDILSDILLNSSLATKDIEAERGVIIREMEEVAQNFQEVVFDILHADVFKGNPLSYTILGPIELIQTINKNDLQGYINTHYRSGRMVLAAAGGVNHDAIVKMAEKYFGELKHGDSSTEFVPATYSPCEVRGDIPDLPMLYGAMVVEGVSWTHEDNLALMVANTLMGEYDRMRGFGVNAPTRLAEKLSQDAGIEVFQSFNTCYKETGLVGTYFVAAPESIDNLIDSVLQQWVWLANNIDEAAVDRAKRSLHTNLLLMLDGSTPVCEDIGRQLLCYGRRIPTPELHARIESITVQQLRDVCRRVFLEGQVSAAVVGKTQYWPVNEEIHGRLIRMQ | not soluble |
| MGSDKIHHHHHHMSGLCAKCVDGCTGGCETWLASFRGREVLYPGPFGDITAGAVKDYPVDYSHLNILGYARGAEGLPEGVEPGPDTAIFTNVDTTTEYGWDIKVKMKVPIFTGALGSTEIARKNWDHIAVGAAISGITVVCGENVAGVDPDLELDSNGKVKKSPELDRRIEIYKRYHDGEYGEILIQMNVEDTRLGVAEYVINKHGIETIELKWGQGAKSIGGEIKVRSLERALELKRRGYIVLPDPELPEVQRAFKEGEIKEFERHSRLGFVSKESFLKEVERLRKLGFKRITLKTGAYSAVELAMALRYGAEAKVDLITVDGAPGGTGMSPWPMMNEWGIPTFYLEALTYQFAEKLSRRGIRVPDIAIAGGFSTEDGVLKAIAMGSPYVKAVCMGRALMIPAMVGKNIGEWLKSGNLPKTVSKYGTTVEEIFVTYEELRSRFGEEEVKKLPLGAIGVYTFVQKFKTGLQQLMAGARKFRLSALSRKDLIALTKDAAEISGIPYVMESYRDEAERILEE | not soluble |
